B1: NRC3_wobSeed25_DR1_T8C_o1 (dsDNA)
DNA 1: GCCAAACCAGGTCAAAGGTCAAAGTCGAGCCAACCAGCGATTGACAGCGTAGAATGAAGG
DNA 2: CCTTCATTCTACGCTGTCAATCGCTGGTTGGCTCGACTTTGACCTTTGACCTGGTTTGGC
B2: NRC3_wobSeed143_DR5_G12T_o1 (dsDNA)
DNA 1: GCAGAACGAGGTCACGCTGAGTTGATAGCAGAGTAGGCGATTGACAGCGTAGAATGAAGG
DNA 2: CCTTCATTCTACGCTGTCAATCGCCTACTCTGCTATCAACTCAGCGTGACCTCGTTCTGC
B3: NRC3_wobSeed75_DR3_A12T_o1 (dsDNA)
DNA 1: GCTCTCGGAGGTCACGAAGGTCAGAGCTTTCCAGAGGCGATTGACAGCGTAGAATGAAGG
DNA 2: CCTTCATTCTACGCTGTCAATCGCCTCTGGAAAGCTCTGACCTTCGTGACCTCCGAGAGC
B4: NRC3_wobSeed1_DR0_T8A_o1 (dsDNA)
DNA 1: GCCAAACAAGGTCAAGGTCAAAGTCGGTTTGTGCCAGCGATTGACAGCGTAGAATGAAGG
DNA 2: CCTTCATTCTACGCTGTCAATCGCTGGCACAAACCGACTTTGACCTTGACCTTGTTTGGC
B5: NRC3_wobSeed117_DR4_T11G_o1 (dsDNA)
DNA 1: GCCGTCAAAGGTCAACTAAGGTAACGTAAAGCACGCGCGATTGACAGCGTAGAATGAAGG
DNA 2: CCTTCATTCTACGCTGTCAATCGCGCGTGCTTTACGTTACCTTAGTTGACCTTTGACGGC
B6: NRC3_random_hg19_277_o1 (dsDNA)
DNA 1: GCGGTGGCACACGCATGGAATCCCAGCGCTTTGGGAGCGATTGACAGCGTAGAATGAAGG
DNA 2: CCTTCATTCTACGCTGTCAATCGCTCCCAAAGCGCTGGGATTCCATGCGTGTGCCACCGC
B7: NRC3_random_hg19_273_o1 (dsDNA)
DNA 1: GCTGCAGGGTTTCTACCGAGAAGTCTGCTGTTAGTCGCGATTGACAGCGTAGAATGAAGG
DNA 2: CCTTCATTCTACGCTGTCAATCGCGACTAACAGCAGACTTCTCGGTAGAAACCCTGCAGC
B8: NRC3_wobSeed93_DR3_A22C_o1 (dsDNA)
DNA 1: GCAGTCAAAGTTCATCTAGGTCACGTAAGATATGCTGCGATTGACAGCGTAGAATGAAGG
DNA 2: CCTTCATTCTACGCTGTCAATCGCAGCATATCTTACGTGACCTAGATGAACTTTGACTGC
B9: NRC3_random_hg19_177_o1 (dsDNA)
DNA 1: GCATCTTTAGCAAGATACTTCATAGGTACTACTGTGGCGATTGACAGCGTAGAATGAAGG
DNA 2: CCTTCATTCTACGCTGTCAATCGCCACAGTAGTACCTATGAAGTATCTTGCTAAAGATGC
B10: NRC3_wobSeed119_DR4_G12T_o1 (dsDNA)
DNA 1: GCGGAACGAGGTCATTCGAGTTGATAGCATGGCGATGCGATTGACAGCGTAGAATGAAGG
DNA 2: CCTTCATTCTACGCTGTCAATCGCATCGCCATGCTATCAACTCGAATGACCTCGTTCCGC
B11: NRC3_wobSeed113_DR4_G15T_o1 (dsDNA)
DNA 1: GCATATGTAGGTTATCTGGGGTCATTCAGACTAGGCGCGATTGACAGCGTAGAATGAAGG
DNA 2: CCTTCATTCTACGCTGTCAATCGCGCCTAGTCTGAATGACCCCAGATAACCTACATATGC
B12: NRC3_random_hg19_198_o1 (dsDNA)
DNA 1: GCAGTTATGTCCACTTGCATAAGTGCAACGTTTGGCGCGATTGACAGCGTAGAATGAAGG
DNA 2: CCTTCATTCTACGCTGTCAATCGCGCCAAACGTTGCACTTATGCAAGTGGACATAACTGC
B13: NRC3_wobSeed124_DR5_T23G_o1 (dsDNA)
DNA 1: GCCCTACTGGGCCATTCAGAGGGCATTGATCATATGGCGATTGACAGCGTAGAATGAAGG
DNA 2: CCTTCATTCTACGCTGTCAATCGCCATATGATCAATGCCCTCTGAATGGCCCAGTAGGGC
B14: NRC3_wobSeed53_DR2_A17T_o1 (dsDNA)
DNA 1: GCCCTTACGGGTCACGTGGTTATAGCACGACGAGCGGCGATTGACAGCGTAGAATGAAGG
DNA 2: CCTTCATTCTACGCTGTCAATCGCCGCTCGTCGTGCTATAACCACGTGACCCGTAAGGGC
B15: NRC3_random_hg19_142_o1 (dsDNA)
DNA 1: GCGGTACTCAGTATGTGAAGAATCATGTTGAGGCAGGCGATTGACAGCGTAGAATGAAGG
DNA 2: CCTTCATTCTACGCTGTCAATCGCCTGCCTCAACATGATTCTTCACATACTGAGTACCGC
B16: NRC3_wobSeed45_DR1_A9T_o1 (dsDNA)
DNA 1: GCTGTCAATGTTCAAAGGTAACGTAAGTATCCACACGCGATTGACAGCGTAGAATGAAGG
DNA 2: CCTTCATTCTACGCTGTCAATCGCGTGTGGATACTTACGTTACCTTTGAACATTGACAGC
B17: NRC3_random_hg19_388_o1 (dsDNA)
DNA 1: GCACAAGTCTACAAACCCTGGGAGAATGAGAAGTGTGCGATTGACAGCGTAGAATGAAGG
DNA 2: CCTTCATTCTACGCTGTCAATCGCACACTTCTCATTCTCCCAGGGTTTGTAGACTTGTGC
B18: NRC3_random_hg19_491_o1 (dsDNA)
DNA 1: GCCGCCTTTAGATTGCAGGCTCCTGGAGAGCTGTCTGCGATTGACAGCGTAGAATGAAGG
DNA 2: CCTTCATTCTACGCTGTCAATCGCAGACAGCTCTCCAGGAGCCTGCAATCTAAAGGCGGC
B19: NRC3_wobSeed13_DR0_A14T_o1 (dsDNA)
DNA 1: GCCGTCCAAGGTCTAGGTCAGTGAAAGAGACTCGAAGCGATTGACAGCGTAGAATGAAGG
DNA 2: CCTTCATTCTACGCTGTCAATCGCTTCGAGTCTCTTTCACTGACCTAGACCTTGGACGGC
B20: NRC3_random_hg19_28_o1 (dsDNA)
DNA 1: GCCATCTAAAGCCTTGACAGGCTGGGATAGCTGCTTGCGATTGACAGCGTAGAATGAAGG
DNA 2: CCTTCATTCTACGCTGTCAATCGCAAGCAGCTATCCCAGCCTGTCAAGGCTTTAGATGGC
B21: NRC3_random_hg19_444_o1 (dsDNA)
DNA 1: GCGGGTGTGGTCGTGGGCACCTGCAGTCCCAGCTACGCGATTGACAGCGTAGAATGAAGG
DNA 2: CCTTCATTCTACGCTGTCAATCGCGTAGCTGGGACTGCAGGTGCCCACGACCACACCCGC

Target: RXRa (Homo sapiens, UniProt P19793)
Sequence (P19793 whole entry): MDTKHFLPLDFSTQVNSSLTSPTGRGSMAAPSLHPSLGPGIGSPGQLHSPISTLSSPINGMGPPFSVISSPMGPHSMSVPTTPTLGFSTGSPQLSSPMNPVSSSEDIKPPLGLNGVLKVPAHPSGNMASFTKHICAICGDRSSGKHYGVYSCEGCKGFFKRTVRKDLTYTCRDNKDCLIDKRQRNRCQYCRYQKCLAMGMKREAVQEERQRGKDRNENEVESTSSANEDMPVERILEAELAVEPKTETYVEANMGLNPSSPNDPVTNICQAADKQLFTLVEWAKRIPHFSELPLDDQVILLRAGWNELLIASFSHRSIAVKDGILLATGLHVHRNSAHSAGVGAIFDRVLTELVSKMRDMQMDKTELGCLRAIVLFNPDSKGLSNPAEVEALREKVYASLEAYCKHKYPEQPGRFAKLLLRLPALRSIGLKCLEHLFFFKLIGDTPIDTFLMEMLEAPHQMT
Assay: no ligand; PBM; 180 nM; PBS pH 7.4, 2% milk, 0.02% Triton X-100, 1 mM DTT, BSA, 0.4 mg/ml salmon testes DNA
Settings: tags: His cleaved; chain copies: 2; label: surface-attached array probe

Binder	binding signal
B1	10.8 PBM z-score against 500 random probes
B2	8.4 PBM z-score against 500 random probes
B3	8.41 PBM z-score against 500 random probes
B4	7.79 PBM z-score against 500 random probes
B5	9.06 PBM z-score against 500 random probes
B6	-0.54 PBM z-score against 500 random probes

Target: RARb:RXRa (Homo sapiens, UniProt P10826;P19793 full;full)
Sequence (P10826 whole entry, chain 1 of 2): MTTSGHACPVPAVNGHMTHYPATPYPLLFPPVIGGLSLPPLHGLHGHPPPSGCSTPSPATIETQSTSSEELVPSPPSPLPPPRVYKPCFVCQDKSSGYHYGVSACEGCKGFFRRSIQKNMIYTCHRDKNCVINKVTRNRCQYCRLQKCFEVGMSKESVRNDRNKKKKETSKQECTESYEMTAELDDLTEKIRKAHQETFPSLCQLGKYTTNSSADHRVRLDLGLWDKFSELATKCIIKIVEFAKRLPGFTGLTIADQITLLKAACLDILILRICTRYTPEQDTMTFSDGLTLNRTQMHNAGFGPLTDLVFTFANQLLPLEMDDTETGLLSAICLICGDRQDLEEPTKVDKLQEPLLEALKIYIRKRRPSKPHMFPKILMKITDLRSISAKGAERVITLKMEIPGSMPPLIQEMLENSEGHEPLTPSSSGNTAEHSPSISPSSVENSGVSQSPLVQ
Sequence (P19793 whole entry, chain 2 of 2): as the sequence (P19793 whole entry) above
Assay: no ligand; PBM; 270 nM : 90 nM RXRa; PBS pH 7.4, 2% milk, 0.02% Triton X-100, 1 mM DTT, BSA, 0.4 mg/ml salmon testes DNA
Settings: tags: His kept;His cleaved; copies: 1;1; label: surface-attached array probe
Procedure, shortened: (§1)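 Antibodies against each partner of ligand-free nuclear receptor dimers (one per run) detected binding on custom Agilent 4×180K protein-binding microarrays after 1 h incubation. The double-stranded probes had 34-nt variable regions carrying direct-repeat seeds, single-nucleotide variants, half-site ablations and random human genomic background sequences. Binding z-scores, from regression-normalized fluorescence, use the random background probes as reference.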

Binder	binding signal
B2	5.54 PBM z-score against 500 random probes
B7	-0.17 PBM z-score against 500 random probes
B3	5.84 PBM z-score against 500 random probes
B8	5.57 PBM z-score against 500 random probes
B4	6.01 PBM z-score against 500 random probes
B5	6.27 PBM z-score against 500 random probes

Target: VDR:RXRa (Homo sapiens, UniProt P11473;P19793 full;full)
Sequence (P11473 whole entry, chain 1 of 2): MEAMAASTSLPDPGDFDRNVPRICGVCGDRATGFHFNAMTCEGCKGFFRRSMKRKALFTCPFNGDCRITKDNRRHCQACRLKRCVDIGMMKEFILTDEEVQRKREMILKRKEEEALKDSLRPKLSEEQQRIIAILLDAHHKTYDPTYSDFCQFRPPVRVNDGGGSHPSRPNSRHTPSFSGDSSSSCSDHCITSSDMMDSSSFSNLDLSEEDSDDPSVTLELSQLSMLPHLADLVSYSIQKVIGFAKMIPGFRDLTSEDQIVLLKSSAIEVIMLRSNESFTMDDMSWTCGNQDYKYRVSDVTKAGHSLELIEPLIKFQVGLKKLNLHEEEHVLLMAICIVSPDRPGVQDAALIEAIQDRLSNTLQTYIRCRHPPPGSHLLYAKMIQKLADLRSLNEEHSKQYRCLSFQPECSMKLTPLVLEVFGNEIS
Sequence (P19793 whole entry, chain 2 of 2): as the sequence (P19793 whole entry) above
Assay: as above
Settings: tags: His kept;His cleaved; copies: 1;1; label: surface-attached array probe
Procedure, shortened: as §1

Binder	binding signal
B1	7.07 PBM z-score against 500 random probes
B2	6.66 PBM z-score against 500 random probes
B9	0.37 PBM z-score against 500 random probes
B10	6.76 PBM z-score against 500 random probes
B3	7.51 PBM z-score against 500 random probes
B8	7.14 PBM z-score against 500 random probes
B11	6.99 PBM z-score against 500 random probes

Target: LXRa:RXRa (Homo sapiens, UniProt Q13133;P19793 full;full)
Sequence (Q13133 whole entry, chain 1 of 2): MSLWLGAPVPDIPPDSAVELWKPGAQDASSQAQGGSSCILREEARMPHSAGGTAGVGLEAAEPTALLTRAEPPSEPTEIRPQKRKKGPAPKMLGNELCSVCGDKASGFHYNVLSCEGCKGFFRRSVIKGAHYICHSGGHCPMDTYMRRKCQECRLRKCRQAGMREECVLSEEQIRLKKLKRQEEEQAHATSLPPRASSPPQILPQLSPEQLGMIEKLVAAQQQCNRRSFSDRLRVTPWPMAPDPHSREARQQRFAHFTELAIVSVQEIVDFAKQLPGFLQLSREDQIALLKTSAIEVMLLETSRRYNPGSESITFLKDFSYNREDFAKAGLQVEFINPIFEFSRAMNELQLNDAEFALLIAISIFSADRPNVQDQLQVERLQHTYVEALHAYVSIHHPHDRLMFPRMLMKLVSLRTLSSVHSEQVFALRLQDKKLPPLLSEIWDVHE
Sequence (P19793 whole entry, chain 2 of 2): as the sequence (P19793 whole entry) above
Assay: as above
Settings: tags: His kept;His cleaved; copies: 1;1; label: surface-attached array probe
Procedure, shortened: as §1

Binder	binding signal
B1	7.81 PBM z-score against 500 random probes
B12	-0.41 PBM z-score against 500 random probes
B13	-0.01 PBM z-score against 500 random probes
B14	3.8 PBM z-score against 500 random probes
B15	0.28 PBM z-score against 500 random probes
B8	6.64 PBM z-score against 500 random probes
B4	6.69 PBM z-score against 500 random probes
B16	0.41 PBM z-score against 500 random probes
B17	-0.44 PBM z-score against 500 random probes
B5	7.32 PBM z-score against 500 random probes
B18	-0.82 PBM z-score against 500 random probes
B11	8.36 PBM z-score against 500 random probes
B6	-0.75 PBM z-score against 500 random probes

Target: PPARa:RXRa (Homo sapiens, UniProt Q07869;P19793 full;full)
Sequence (Q07869 whole entry, chain 1 of 2): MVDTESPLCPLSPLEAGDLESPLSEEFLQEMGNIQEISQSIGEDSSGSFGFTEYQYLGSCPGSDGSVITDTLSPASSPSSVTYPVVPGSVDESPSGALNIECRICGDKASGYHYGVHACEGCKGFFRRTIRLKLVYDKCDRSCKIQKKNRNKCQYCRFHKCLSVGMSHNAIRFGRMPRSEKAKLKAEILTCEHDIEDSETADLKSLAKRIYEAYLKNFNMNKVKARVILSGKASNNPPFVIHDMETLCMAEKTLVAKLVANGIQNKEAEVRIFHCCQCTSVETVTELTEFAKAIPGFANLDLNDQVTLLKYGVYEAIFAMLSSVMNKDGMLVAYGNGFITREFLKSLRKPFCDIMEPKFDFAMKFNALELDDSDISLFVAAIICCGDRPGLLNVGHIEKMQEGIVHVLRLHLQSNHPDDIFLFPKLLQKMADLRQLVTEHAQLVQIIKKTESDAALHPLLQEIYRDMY
Sequence (P19793 whole entry, chain 2 of 2): as the sequence (P19793 whole entry) above
Assay: as above
Settings: tags: GST kept;His cleaved; copies: 1;1; label: surface-attached array probe
Procedure, shortened: as §1

Binder	binding signal
B5	6.96 PBM z-score against 500 random probes

Target: LXRb:RXRa (Homo sapiens, UniProt P55055;P19793 full;full)
Sequence (P55055 whole entry, chain 1 of 2): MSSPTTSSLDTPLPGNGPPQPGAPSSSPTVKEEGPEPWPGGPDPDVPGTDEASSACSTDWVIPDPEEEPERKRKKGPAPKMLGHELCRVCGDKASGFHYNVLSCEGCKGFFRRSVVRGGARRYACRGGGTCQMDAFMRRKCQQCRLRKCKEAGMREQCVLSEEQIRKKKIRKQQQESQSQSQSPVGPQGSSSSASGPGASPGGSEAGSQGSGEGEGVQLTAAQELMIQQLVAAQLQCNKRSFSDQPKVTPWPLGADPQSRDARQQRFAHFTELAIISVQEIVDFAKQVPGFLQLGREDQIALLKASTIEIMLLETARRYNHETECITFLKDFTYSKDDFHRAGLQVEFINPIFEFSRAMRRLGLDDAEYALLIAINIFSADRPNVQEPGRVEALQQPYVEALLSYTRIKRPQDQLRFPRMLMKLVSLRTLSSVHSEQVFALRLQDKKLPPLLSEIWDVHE
Sequence (P19793 whole entry, chain 2 of 2): as the sequence (P19793 whole entry) above
Assay: as above
Settings: tags: His kept;His cleaved; copies: 1;1; label: surface-attached array probe
Procedure, shortened: as §1

Binder	binding signal
B9	0.07 PBM z-score against 500 random probes
B19	0.12 PBM z-score against 500 random probes
B7	-0.41 PBM z-score against 500 random probes
B4	5.84 PBM z-score against 500 random probes
B20	-1 PBM z-score against 500 random probes
B5	6.25 PBM z-score against 500 random probes
B21	0.06 PBM z-score against 500 random probes
B11	7.25 PBM z-score against 500 random probes

Target: FXR:RXRa (Homo sapiens, UniProt Q96RI1;P19793 full;full)
Sequence (Q96RI1 whole entry, chain 1 of 2): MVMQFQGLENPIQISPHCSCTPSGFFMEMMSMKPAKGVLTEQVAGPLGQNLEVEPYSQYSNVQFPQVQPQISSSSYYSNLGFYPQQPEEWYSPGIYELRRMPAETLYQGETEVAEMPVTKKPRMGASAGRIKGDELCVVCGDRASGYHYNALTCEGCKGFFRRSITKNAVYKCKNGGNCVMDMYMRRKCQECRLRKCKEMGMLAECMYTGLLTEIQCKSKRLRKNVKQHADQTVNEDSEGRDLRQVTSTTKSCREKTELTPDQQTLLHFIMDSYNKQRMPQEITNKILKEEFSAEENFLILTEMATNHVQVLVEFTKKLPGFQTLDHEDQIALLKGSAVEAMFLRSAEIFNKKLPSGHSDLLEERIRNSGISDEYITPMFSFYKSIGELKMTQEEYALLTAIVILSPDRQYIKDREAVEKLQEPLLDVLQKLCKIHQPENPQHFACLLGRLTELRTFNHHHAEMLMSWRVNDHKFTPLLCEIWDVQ
Sequence (P19793 whole entry, chain 2 of 2): as the sequence (P19793 whole entry) above
Assay: as above
Settings: tags: His kept;His cleaved; copies: 1;1; label: surface-attached array probe
Procedure, shortened: as §1

Binder	binding signal
B1	8.73 PBM z-score against 500 random probes
B12	-0.27 PBM z-score against 500 random probes
B2	8.27 PBM z-score against 500 random probes
B10	7.77 PBM z-score against 500 random probes
B4	8.19 PBM z-score against 500 random probes
B5	8.82 PBM z-score against 500 random probes

Target: PXR:RXRa (Homo sapiens, UniProt O75469;P19793 full;full)
Sequence (O75469 whole entry, chain 1 of 2): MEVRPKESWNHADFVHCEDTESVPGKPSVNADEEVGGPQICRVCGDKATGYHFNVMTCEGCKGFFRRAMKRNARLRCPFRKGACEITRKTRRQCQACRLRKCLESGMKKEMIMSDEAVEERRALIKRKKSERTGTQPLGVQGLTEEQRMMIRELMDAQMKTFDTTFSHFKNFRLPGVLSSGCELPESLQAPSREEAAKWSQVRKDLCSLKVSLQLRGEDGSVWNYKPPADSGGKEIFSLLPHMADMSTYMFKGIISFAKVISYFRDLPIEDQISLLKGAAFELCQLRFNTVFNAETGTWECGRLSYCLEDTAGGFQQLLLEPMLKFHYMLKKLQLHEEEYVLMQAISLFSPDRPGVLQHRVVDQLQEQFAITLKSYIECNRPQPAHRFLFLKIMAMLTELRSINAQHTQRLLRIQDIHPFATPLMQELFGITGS
Sequence (P19793 whole entry, chain 2 of 2): as the sequence (P19793 whole entry) above
Assay: as above
Settings: tags: His kept;His cleaved; copies: 1;1; label: surface-attached array probe
Procedure, shortened: as §1

Binder	binding signal
B1	7.42 PBM z-score against 500 random probes
B12	0.06 PBM z-score against 500 random probes
B2	6.45 PBM z-score against 500 random probes
B9	-0.14 PBM z-score against 500 random probes
B10	6.69 PBM z-score against 500 random probes
B19	0.19 PBM z-score against 500 random probes
B7	-0.66 PBM z-score against 500 random probes
B13	0.42 PBM z-score against 500 random probes
B14	3.42 PBM z-score against 500 random probes
B15	0.04 PBM z-score against 500 random probes
B3	6.46 PBM z-score against 500 random probes
B8	7.03 PBM z-score against 500 random probes
B4	6.47 PBM z-score against 500 random probes
B16	0.4 PBM z-score against 500 random probes
B20	-0.65 PBM z-score against 500 random probes
B17	-0.52 PBM z-score against 500 random probes
B5	6.64 PBM z-score against 500 random probes
B21	-0.37 PBM z-score against 500 random probes
B18	-1.27 PBM z-score against 500 random probes
B11	6.87 PBM z-score against 500 random probes
B6	-0.74 PBM z-score against 500 random probes

Target: RARg:RXRa (Homo sapiens, UniProt P13631;P19793 full;full)
Sequence (P13631 whole entry, chain 1 of 2): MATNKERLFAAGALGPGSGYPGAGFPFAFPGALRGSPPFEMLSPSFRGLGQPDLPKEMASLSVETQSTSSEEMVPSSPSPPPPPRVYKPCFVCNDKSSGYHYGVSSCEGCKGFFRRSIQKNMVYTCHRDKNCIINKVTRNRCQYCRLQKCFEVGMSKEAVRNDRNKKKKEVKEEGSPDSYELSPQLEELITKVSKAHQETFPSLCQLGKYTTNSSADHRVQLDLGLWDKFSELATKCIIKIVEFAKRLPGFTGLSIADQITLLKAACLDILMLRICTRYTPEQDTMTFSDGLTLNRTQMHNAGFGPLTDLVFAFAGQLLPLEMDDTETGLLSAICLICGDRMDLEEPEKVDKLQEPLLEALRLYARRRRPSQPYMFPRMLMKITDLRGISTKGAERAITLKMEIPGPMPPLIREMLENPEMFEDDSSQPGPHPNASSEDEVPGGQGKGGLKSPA
Sequence (P19793 whole entry, chain 2 of 2): as the sequence (P19793 whole entry) above
Assay: as above
Settings: tags: His kept;His cleaved; copies: 1;1; label: surface-attached array probe
Procedure, shortened: as §1

Binder	binding signal
B2	7.45 PBM z-score against 500 random probes
B7	-0.66 PBM z-score against 500 random probes
B3	7.62 PBM z-score against 500 random probes
B4	7.39 PBM z-score against 500 random probes
B5	8.38 PBM z-score against 500 random probes
B21	-0.64 PBM z-score against 500 random probes
